Test results reported in the supplement of paper PMC10065799, “High-throughput profiling of sequence recognition by tyrosine kinases and SH2 domains using bacterial peptide display” (eLife, 2023).

Experiments:
AncSZ = experiment: phosphorylation enrichment, bacterial display (enrichment ratio); higher = better substrate or ligand; peptides without Tyr show the background
EPHB1 = EPHB1 (UniProt P54762); experiment: as above
EPHB2 = EPHB2 (UniProt P29323); experiment: as above
FGFR1 = FGFR1 (UniProt P11362); experiment: as above
FGFR3 = FGFR3 (UniProt P22607); experiment: as above
Fer (mouse) = experiment: as above
Fes = Fes (UniProt P07332); experiment: as above
Fyn = Fyn (UniProt P06241); experiment: as above
Hck = Hck (UniProt P08631); experiment: as above
Jak2 = Jak2 (UniProt O60674); experiment: as above
MERTK = MERTK (UniProt Q12866); experiment: as above
c-Abl (mouse) = experiment: as above
c-Src = experiment: as above
Grb2 SH2 = Grb2 SH2 (UniProt P62993); experiment: SH2 binding enrichment of the phosphorylated peptide, bacterial display (enrichment ratio); higher = better substrate or ligand; peptides without Tyr show the background
SHP2-C SH2 = experiment: as above
c-Src SH2 = experiment: as above
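Throughout, for SH2 binding enrichment of the phosphorylated peptide, bacterial display: peptide library displayed on the E. coli surface as eCPX fusions, selected cells deep-sequenced, score is each peptide's frequency after selection divided by its frequency in the input.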
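Throughout, for phosphorylation enrichment, bacterial display: 11-residue human phosphosite peptides and single-mutation variants displayed on the E. coli surface, counted by deep sequencing, each peptide's frequency after selection divided by its frequency in the unselected input library; frequency after pTyr selection over input frequency; kinase dosed for 20-30% of maximal phosphorylation in three min.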

Sequence of EPHB2 (P29323 whole entry, looked up): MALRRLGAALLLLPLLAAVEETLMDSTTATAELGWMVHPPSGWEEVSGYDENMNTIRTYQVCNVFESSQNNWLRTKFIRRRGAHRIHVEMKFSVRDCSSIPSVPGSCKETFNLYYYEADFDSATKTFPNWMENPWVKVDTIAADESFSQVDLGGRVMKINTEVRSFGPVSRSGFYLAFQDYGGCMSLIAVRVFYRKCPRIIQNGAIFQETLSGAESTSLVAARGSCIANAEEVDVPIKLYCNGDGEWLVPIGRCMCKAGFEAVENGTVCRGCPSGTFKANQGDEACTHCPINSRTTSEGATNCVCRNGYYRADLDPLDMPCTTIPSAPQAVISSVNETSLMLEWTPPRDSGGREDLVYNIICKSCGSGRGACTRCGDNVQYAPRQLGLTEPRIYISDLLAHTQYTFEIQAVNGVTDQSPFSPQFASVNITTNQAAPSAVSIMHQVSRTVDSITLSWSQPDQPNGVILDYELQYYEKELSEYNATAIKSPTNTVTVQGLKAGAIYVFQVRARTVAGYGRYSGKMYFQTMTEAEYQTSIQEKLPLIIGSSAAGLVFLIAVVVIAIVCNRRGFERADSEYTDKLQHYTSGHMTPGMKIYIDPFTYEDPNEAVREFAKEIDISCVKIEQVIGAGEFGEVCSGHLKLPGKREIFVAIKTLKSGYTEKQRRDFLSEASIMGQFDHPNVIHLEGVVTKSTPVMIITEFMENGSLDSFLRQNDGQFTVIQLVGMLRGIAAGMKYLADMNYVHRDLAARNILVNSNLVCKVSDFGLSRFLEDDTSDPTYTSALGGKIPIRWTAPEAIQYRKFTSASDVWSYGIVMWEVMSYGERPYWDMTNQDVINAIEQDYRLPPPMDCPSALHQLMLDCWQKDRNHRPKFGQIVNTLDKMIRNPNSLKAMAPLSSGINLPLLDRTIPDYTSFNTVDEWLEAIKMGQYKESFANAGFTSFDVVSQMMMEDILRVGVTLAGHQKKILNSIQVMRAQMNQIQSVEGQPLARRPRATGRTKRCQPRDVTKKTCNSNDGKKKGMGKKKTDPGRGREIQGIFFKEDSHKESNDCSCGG
Sequence of Fyn (P06241 whole entry, looked up): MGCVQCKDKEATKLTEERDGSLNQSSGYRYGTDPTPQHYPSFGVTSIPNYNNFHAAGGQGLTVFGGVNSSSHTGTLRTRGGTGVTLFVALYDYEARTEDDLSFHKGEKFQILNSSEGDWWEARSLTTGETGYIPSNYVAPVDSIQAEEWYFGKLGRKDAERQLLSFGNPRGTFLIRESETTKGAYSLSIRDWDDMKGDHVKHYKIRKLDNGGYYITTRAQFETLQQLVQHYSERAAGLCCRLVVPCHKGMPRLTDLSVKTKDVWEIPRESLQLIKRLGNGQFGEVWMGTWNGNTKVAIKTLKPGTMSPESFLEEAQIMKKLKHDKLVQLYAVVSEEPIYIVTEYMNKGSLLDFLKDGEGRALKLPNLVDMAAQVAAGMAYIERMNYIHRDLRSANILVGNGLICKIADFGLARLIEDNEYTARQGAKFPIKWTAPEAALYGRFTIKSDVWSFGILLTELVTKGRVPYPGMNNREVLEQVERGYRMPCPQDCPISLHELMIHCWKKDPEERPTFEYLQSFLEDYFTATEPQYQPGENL
Sequence of FGFR1 (P11362 whole entry, looked up): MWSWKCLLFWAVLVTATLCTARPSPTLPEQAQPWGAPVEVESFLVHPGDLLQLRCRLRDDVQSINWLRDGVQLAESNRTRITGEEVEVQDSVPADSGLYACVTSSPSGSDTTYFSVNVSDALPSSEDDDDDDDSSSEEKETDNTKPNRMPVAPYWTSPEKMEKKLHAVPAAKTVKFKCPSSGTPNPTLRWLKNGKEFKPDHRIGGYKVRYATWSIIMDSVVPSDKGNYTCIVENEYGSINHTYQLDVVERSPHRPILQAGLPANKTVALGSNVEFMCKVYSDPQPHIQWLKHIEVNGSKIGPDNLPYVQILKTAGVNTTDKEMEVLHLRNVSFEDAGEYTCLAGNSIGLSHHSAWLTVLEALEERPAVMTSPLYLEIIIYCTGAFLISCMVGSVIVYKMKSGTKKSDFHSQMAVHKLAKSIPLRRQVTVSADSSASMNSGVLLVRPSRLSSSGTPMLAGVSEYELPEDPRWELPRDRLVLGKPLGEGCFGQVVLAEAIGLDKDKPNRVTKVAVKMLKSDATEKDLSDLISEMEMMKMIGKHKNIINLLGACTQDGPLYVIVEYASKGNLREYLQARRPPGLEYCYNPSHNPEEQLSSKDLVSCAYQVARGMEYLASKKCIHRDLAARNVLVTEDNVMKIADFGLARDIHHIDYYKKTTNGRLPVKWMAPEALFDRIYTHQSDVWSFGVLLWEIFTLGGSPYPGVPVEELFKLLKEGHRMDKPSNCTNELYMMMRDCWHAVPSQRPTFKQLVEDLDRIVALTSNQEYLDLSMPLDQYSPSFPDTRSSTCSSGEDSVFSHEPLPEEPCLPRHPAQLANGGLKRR
Sequence of Hck (P08631 whole entry, looked up): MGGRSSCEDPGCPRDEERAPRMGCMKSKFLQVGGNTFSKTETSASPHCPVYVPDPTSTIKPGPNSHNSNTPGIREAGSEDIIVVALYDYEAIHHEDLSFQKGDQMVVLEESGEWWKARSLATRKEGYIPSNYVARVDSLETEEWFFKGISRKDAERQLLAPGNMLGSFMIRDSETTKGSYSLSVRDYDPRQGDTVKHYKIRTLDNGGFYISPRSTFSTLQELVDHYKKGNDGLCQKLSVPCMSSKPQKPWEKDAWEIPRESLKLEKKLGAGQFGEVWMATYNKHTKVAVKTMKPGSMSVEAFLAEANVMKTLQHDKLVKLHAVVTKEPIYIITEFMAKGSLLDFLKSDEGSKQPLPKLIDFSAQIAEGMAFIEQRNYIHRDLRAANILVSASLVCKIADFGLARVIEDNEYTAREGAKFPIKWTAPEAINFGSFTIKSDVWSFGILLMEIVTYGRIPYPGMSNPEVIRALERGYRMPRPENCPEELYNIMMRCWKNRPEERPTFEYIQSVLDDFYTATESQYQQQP
Sequence of MERTK (Q12866 whole entry, looked up): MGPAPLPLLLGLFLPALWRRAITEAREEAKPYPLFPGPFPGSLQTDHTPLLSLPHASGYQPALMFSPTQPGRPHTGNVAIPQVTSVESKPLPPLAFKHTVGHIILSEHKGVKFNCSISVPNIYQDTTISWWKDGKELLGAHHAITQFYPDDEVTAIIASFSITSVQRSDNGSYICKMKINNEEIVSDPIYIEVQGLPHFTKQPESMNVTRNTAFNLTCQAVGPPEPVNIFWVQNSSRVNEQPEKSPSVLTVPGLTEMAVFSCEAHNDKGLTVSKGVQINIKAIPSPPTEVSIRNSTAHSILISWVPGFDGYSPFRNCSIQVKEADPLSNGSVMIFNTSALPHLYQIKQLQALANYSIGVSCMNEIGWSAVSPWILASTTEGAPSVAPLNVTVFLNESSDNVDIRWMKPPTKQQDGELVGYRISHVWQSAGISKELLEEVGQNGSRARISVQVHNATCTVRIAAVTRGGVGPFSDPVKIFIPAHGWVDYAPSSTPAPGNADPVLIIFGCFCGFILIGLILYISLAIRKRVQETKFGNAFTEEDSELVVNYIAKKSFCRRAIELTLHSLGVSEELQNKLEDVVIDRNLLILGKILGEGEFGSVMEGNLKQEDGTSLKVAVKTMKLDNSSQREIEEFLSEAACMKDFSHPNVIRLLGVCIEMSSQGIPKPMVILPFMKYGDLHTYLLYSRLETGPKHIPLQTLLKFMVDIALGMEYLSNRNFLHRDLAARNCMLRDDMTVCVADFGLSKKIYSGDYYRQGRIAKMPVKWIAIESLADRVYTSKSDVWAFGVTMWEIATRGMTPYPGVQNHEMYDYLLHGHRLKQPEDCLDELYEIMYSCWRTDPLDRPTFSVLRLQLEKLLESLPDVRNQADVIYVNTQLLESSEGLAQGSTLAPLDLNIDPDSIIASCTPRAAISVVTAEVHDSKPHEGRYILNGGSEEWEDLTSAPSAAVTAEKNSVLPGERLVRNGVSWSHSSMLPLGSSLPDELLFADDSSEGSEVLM
Sequence of Jak2 (O60674 whole entry, looked up): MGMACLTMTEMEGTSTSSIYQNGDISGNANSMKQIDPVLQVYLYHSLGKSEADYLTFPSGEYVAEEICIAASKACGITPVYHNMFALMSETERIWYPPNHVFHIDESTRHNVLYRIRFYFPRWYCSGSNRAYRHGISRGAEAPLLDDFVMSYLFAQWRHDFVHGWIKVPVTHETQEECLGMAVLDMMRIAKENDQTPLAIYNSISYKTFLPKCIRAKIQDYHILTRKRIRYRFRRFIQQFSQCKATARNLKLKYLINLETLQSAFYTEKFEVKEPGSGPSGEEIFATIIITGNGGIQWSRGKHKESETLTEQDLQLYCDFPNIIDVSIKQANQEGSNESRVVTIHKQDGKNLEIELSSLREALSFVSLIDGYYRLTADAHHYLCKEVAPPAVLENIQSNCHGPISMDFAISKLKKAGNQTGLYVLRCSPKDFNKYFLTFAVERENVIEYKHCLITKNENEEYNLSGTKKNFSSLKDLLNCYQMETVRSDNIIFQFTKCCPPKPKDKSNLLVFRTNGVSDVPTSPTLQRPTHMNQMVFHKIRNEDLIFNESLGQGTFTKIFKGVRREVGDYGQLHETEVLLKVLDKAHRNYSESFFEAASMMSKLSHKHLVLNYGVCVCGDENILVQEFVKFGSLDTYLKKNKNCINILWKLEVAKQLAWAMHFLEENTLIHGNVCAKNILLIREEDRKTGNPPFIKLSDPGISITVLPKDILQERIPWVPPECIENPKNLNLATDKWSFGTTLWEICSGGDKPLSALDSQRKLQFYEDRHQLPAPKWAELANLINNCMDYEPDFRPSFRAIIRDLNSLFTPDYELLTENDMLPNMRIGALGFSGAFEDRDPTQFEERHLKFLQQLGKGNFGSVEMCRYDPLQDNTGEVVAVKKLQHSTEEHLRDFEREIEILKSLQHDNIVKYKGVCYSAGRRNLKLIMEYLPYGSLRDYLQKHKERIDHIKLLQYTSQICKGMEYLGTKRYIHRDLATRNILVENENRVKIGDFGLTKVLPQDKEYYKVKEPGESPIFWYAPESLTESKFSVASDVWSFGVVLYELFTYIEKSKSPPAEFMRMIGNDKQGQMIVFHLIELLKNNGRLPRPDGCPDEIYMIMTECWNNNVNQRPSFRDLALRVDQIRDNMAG

Row | SH2 binding enrichment (Grb2 SH2) | SH2 binding enrichment (SHP2-C SH2) | SH2 binding enrichment (c-Src SH2) | Sequence | phosphorylation enrichment (AncSZ) | phosphorylation enrichment (EPHB1) | phosphorylation enrichment (EPHB2) | phosphorylation enrichment (FGFR1) | phosphorylation enrichment (FGFR3) | phosphorylation enrichment (Fer (mouse)) | phosphorylation enrichment (Fes) | phosphorylation enrichment (Fyn) | phosphorylation enrichment (Hck) | phosphorylation enrichment (Jak2) | phosphorylation enrichment (MERTK) | phosphorylation enrichment (c-Abl (mouse)) | phosphorylation enrichment (c-Src)
1 | 0.85 | 1.17 | 1.17 | ILGRFYETGSI [PAX2_Y73_YF] | 0.737 | 0.489 | 0.515 | 0.423 | 0.578 | 0.4 | 0.779 | 0.5 | 0.451 | 0.566 | 0.428 | 0.52 | 0.414
2 | 5.66 | 1.44 | 0.767 | ILGRTHYVNHE [NEDD4_Y627_Y627H] | 0.565 | 0.468 | 0.671 | 0.419 | 0.434 | 0.376 | 0.593 | 0.373 | 0.318 | 0.582 | 0.398 | 0.596 | 0.482
3 | 1.08 | 0.509 | 0.461 | ILNANYMAKRL [GLDC_Y839] | 0.476 | 0.334 | 0.363 | 0.368 | 0.412 | 0.458 | 0.514 | 0.412 | 0.366 | 0.436 | 0.446 | 0.394 | 0.34
4 | 1.69 | 1.67 | 1.17 | ILTFKYLQIPM [KIT_Y547_K550I_YF] | 1.07 | 0.586 | 0.649 | 0.442 | 0.663 | 0.521 | 1.16 | 0.468 | 0.453 | 1.02 | 0.371 | 0.637 | 0.344
5 | 1.04 | 0.963 | 1.03 | IMFTSYFLTIL [TAS2R16_Y239_V235M] | 1.34 | 0.755 | 0.555 | 0.732 | 0.922 | 0.579 | 1.52 | 0.622 | 0.623 | 2.38 | 0.476 | 0.955 | 0.578
6 | 1.38 | 1.38 | 1.04 | IMITDYLLLFR [INSR_Y87] | 1.21 | 0.678 | 0.647 | 1.36 | 1.2 | 0.513 | 1.18 | 0.467 | 0.502 | 1.55 | 0.399 | 0.829 | 0.481
7 | 1.12 | 0.794 | 0.591 | IMVFVYSRVFQ [ADRB2_Y219] | 0.961 | 0.554 | 0.484 | 0.445 | 0.786 | 0.487 | 1.16 | 0.445 | 0.435 | 0.93 | 0.448 | 0.844 | 0.486
8 | 0.893 | 0.598 | 0.445 | INNIDYFKKTT [FGFR2_Y656_YF] | 0.768 | 0.46 | 0.415 | 0.567 | 0.64 | 0.36 | 0.648 | 0.409 | 0.567 | 0.605 | 0.37 | 0.373 | 0.5
9 | 0.943 | 0.646 | 0.635 | IPGGIYNADLN [CST4_Y35_D36N] | 0.748 | 0.514 | 0.366 | 0.542 | 0.516 | 0.472 | 0.95 | 1.27 | 1.27 | 0.746 | 0.443 | 0.654 | 1.36
10 | 0.644 | 0.526 | 0.471 | IPPRRYFRSGV [STAMBP_Y36] | 0.778 | 0.531 | 0.523 | 0.414 | 0.61 | 0.548 | 0.676 | 0.639 | 0.573 | 0.714 | 0.608 | 0.717 | 0.61
11 | 0.596 | 0.725 | 0.394 | IRKKYYRAILE [CHD7_Y1218_Q1214R] | 0.529 | 0.388 | 0.362 | 0.423 | 0.439 | 0.389 | 0.581 | 0.405 | 0.485 | 0.439 | 0.508 | 0.478 | 0.446
12 | 0.817 | 0.62 | 0.463 | IRTDAYVPAMT [RPE65_Y89_R91P] | 0.516 | 0.33 | 0.336 | 0.399 | 0.455 | 0.425 | 0.612 | 0.302 | 0.495 | 0.678 | 0.367 | 0.594 | 0.401
13 | 0.751 | 0.585 | 0.364 | IRTGIYHGGEP [PIK3CA_Y361_V356I] | 0.522 | 0.392 | 0.428 | 0.385 | 0.447 | 0.399 | 0.501 | 0.551 | 0.572 | 0.653 | 0.507 | 0.516 | 0.521
14 | 0.923 | 0.868 | 0.528 | IRTIDYRFTVW [IDS_Y497_YF] | 1.11 | 0.629 | 0.614 | 0.41 | 0.741 | 0.557 | 1.2 | 0.423 | 0.489 | 1.09 | 0.402 | 0.735 | 0.39
15 | 0.811 | 0.6 | 0.543 | ISDEAYVMAGV [ERBB2_Y772_L768S] | 1.15 | 0.495 | 0.53 | 0.494 | 0.736 | 0.564 | 0.81 | 0.603 | 0.541 | 0.656 | 0.436 | 0.62 | 0.504
16 | 0.752 | 0.748 | 0.511 | ISDNACQYMLT [MYH7_Y162_Y162C] | 1 | 0.629 | 0.583 | 0.623 | 0.687 | 0.587 | 1.05 | 0.546 | 0.518 | 1.18 | 0.75 | 0.679 | 0.811
17 | 0.843 | 0.534 | 0.596 | ISIFRYAKGQP [MPZ_Y82_H81R] | 0.791 | 0.461 | 0.577 | 0.486 | 0.685 | 0.414 | 0.937 | 0.464 | 0.402 | 0.969 | 0.49 | 0.574 | 0.404
